Test results reported in US20150197564A1 (Regeneron, published 2015).

Key:
MfANGPTL3(17-170)-mmH = molecular target: T1, MfANGPTL3(17-170)-mmH (Macaca fascicularis); assay: SPR Biacore, antigen captured, 25C, pH 5.75, PBSP
T1 construct: also called N-terminal coiled-coil domain of ANGPTL3 from Macaca fascicularis with myc-myc-hexahistidine tag; Monkey ANGPTL3 (17-170)-mmH
T1 chain: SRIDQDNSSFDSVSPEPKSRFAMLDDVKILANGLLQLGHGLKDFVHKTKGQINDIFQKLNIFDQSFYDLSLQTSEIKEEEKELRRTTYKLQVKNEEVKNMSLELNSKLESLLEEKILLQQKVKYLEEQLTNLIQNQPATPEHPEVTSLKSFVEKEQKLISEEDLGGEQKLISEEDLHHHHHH
Description: (§1) All kinetic binding experiments were performed at 25° C. or 37° C. on a BIACORE™ T200 label-free molecular interaction instrument (GE Healthcare) using a CM5 sensor chip. Briefly, an antigen capture surface was generated by covalently coupling either an anti-mouse IgG-specific antibody (anti-mFc; GE Healthcare; catalog #BR-1008-38) or an anti-pentahistidine-specific antibody (Qiagen; catalog #34660) to the surface of a CM5 sensor chip using a standard amine coupling method.

hANGPTL3(17-170)-His = molecular target: T2, hANGPTL3(17-170)-His (human, UniProt Q9Y5C1 17-170); assay: SPR Biacore, antigen captured, 25C, pH 5.75, PBSP
T2 construct: also called N-terminal coiled-coil domain of hANGPTL3 with a C-terminal hexahistidine tag; Human ANGPTL3 (17-170)-His
T2 sequence: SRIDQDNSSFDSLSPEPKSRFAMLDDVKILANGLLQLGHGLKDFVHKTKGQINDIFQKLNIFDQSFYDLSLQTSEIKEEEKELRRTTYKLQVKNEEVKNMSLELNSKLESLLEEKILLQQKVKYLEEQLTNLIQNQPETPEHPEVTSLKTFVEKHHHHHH
Description: as §1

hANGPTL3(17-460)-His = molecular target: T3, hANGPTL3(17-460)-His (human, UniProt Q9Y5C1 17-460); assay: SPR Biacore, antigen captured, 25C, pH 5.75, PBSP
T3 construct: Bought protein (R&D Systems); also called full-length mature human ANGPTL3 with a C-terminal decahistidine tag; Human ANGPTL3 (17-460)-His
T3 sequence: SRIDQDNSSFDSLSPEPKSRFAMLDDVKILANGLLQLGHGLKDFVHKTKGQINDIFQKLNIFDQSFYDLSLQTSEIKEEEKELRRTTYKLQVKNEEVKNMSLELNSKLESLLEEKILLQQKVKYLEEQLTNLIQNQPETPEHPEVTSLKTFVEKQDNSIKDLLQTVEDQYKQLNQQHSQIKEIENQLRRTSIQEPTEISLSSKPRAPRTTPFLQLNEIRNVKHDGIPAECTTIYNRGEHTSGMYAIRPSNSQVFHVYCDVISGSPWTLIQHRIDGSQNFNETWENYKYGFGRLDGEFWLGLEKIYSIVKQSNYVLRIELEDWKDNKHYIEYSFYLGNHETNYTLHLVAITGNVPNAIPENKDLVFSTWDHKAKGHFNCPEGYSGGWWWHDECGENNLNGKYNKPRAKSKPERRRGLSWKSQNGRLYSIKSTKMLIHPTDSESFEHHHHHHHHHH
Description: as §1

[1] = molecular target: T4, N-terminal biotin tagged Peptide 1 (human, N-terminal biotin tag); assay: OCTET RED label-free biosensor; biotinylated peptide on streptavidin-coated tips dipped into 1 uM antibody, binding monitored for 2.5 minutes
T4 construct: Immobilised on streptavidin biosensor tips; also called control ANGPTL4 peptide; hANGPTL4 peptide
T4 peptide: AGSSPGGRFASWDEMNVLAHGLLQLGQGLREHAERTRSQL
Description: (§2) To assess the binding of the anti-ANGPTL3 antibody H4H1276S to peptides derived from the N-terminal coiled-coil region of ANGPTL3, a label-free biosensor binding assay was performed using OCTET® RED system (ForteDo, Inc.). […] The peptide-coated biosensor tips were then dipped into wells containing 1 μM of either anti-ANGPTL3 antibody H4H1276S or an isotype-matched negative control antibody, and binding was monitored for 2.5 minutes. It was observed that H4H1276S binds to the ANGPTL3 linear sequence defined by Peptide 2 but not the overlapping but distinct sequence defined by Peptide 3 (see also FIG. 1). The isotype control antibody also served as a positive control for loading of Peptide 1 (i.e., hANGPTL4 peptide) onto the biosensor, because this isotype control antibody specifically recognizes hANGPTL4.

[2] = molecular target: T5, N-terminal biotin tagged Peptide 3 (human, N-terminal biotin tag); assay: as above
T5 construct: Immobilised on streptavidin biosensor tips; also called ANGPTL3 peptide
T5 peptide: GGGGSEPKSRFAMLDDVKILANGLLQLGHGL
Description: as §2

[3] = molecular target: T6, C-terminal biotin tagged Peptide 2 (human, C-terminal biotin tag); assay: as above
T6 construct: Immobilised on streptavidin biosensor tips; also called ANGPTL3 peptide
T6 peptide: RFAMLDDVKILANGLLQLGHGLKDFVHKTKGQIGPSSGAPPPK
Description: as §2

hANGPTL3(17-169)-mFc = molecular target: T7, hANGPTL3(17-169)-mFc (human); assay: cell-based or functional assay
T7 chain: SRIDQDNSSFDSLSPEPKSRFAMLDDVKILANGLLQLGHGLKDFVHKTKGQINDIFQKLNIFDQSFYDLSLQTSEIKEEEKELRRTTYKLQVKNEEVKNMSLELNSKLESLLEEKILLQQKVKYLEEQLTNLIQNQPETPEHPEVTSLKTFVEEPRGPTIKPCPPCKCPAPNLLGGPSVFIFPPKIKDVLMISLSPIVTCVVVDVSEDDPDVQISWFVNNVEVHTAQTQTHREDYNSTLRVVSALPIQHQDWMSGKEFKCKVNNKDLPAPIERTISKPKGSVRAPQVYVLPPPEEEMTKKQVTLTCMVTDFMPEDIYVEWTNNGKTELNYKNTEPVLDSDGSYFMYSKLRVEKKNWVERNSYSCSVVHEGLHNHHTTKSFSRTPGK

mANGPTL3(17-240)-His = molecular target: T8, mANGPTL3(17-240)-His (Mus musculus, UniProt Q9R182 17-240); assay: cell-based or functional assay
T8 sequence: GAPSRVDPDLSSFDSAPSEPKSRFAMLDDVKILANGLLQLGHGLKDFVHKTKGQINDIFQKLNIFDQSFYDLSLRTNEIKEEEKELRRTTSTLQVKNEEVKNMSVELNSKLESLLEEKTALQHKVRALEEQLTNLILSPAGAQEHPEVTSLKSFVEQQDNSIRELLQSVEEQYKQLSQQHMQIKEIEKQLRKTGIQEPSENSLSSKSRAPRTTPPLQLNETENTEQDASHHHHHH

B1: H4H1276S (antibody, IgG4, V domains shown)
VH: EVQLVESGGGVIQPGGSLRLSCAASGFTFDDYAMNWVRQGPGKGLEWVSAISGDGGSTYYADSVKGRFTISRDNSKNSLYLQMNSLRAEDTAFFYCAKDLRNTIFGVVIPDAFDIWGQGTMVTVSS
VL: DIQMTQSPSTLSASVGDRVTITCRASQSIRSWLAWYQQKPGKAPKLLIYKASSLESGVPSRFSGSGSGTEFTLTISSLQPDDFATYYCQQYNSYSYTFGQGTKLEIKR
Work on B1 yielded a Kd (MfANGPTL3(17-170)-mmH) of 21 nM, a koff (MfANGPTL3(17-170)-mmH) of 0.00432 s⁻¹ and a kon (MfANGPTL3(17-170)-mmH) of 206000 M⁻¹ s⁻¹. The t1/2 (MfANGPTL3(17-170)-mmH) was 2.7 min, the Kd (hANGPTL3(17-170)-His) was 24 nM and the koff (hANGPTL3(17-170)-His) was 0.00672 s⁻¹. It also gave a kon (hANGPTL3(17-170)-His) of 280000 M⁻¹ s⁻¹, a t1/2 (hANGPTL3(17-170)-His) of 1.7 min and a Kd (hANGPTL3(17-460)-His) of 67.5 nM. For the same binder, the koff (hANGPTL3(17-460)-His) was 0.00494 s⁻¹, the kon (hANGPTL3(17-460)-His) was 73200 M⁻¹ s⁻¹ and the t1/2 (hANGPTL3(17-460)-His) was 2.3 min. B1: no binding (tested: 1 uM) [1]; no binding (tested: 1 uM) [2]; binds [3]. The “IC50, LPL bioassay, 80 nM constant hANGPTL3(17-169)-mFc” value (hANGPTL3(17-169)-mFc) was 33 nM and the “IC50, LPL bioassay, 500 nM constant mANGPTL3(17-240)-His” value (mANGPTL3(17-240)-His) was 64 nM.
